Data published in article PMC4132745.

Test system: HMO1 (Saccharomyces cerevisiae)
Test: optical tweezers (DNA stretching)
Conditions: Assay buffer, salt, pH and temperature not given in the material (protein stored in 20 mM HEPES pH 7.5, 100 mM KCl, 1 mM EDTA, 1 mM DTT, 5% glycerol)

bacteriophage lambda DNA was tested, and the Kd (from contour length, omega = 18 +/- 5, n = 26 bp) was 1.9 nM, the Kd (from overstretching force, omega = 80 +/- 15, n = 26 bp) was 2.8 nM and the Kd (from persistence length, omega = 20 +/- 7, n = 26 bp) was 2.1 nM.
